Measurements taken from US20260274955A1 (JANUX THERAPEUTICS, published 2026).

Tests used:
[1] = molecular target: T1, anti-CD28 Fab (SEQ ID NOs: 202, 203); experiment: phage ELISA on captured Fab, wells pre-incubated with CD28 antigen (competitor);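 note: clonal phage ELISA with wells pretreated with CD28 plus blocking buffer before phage addition, bound phage detected by HRP-linked anti-M13 antibody, reference wells got blocking buffer only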
T1 construct: biotinylated and captured on neutravidin coated plates in the phage ELISA
T1 sequence (VH, as listed by the source, chain 1 of 2): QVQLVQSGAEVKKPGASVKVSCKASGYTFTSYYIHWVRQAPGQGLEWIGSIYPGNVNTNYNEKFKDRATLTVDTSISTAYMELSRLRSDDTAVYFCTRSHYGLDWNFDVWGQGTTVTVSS
T1 sequence (VL, as listed by the source, chain 2 of 2): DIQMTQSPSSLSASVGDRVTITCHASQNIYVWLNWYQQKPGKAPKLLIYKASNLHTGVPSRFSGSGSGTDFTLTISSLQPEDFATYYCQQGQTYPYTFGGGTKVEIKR
Protocol: (§1) Clonal phage were harvested as crude supernatants and screened via standard ELISAs. […] Prior to the addition of clonal phage, wells were incubated with blocking buffer and CD28 antigen or blocking buffer alone. Without washing or aspirating, clonal phage supernatants were then added to the wells and incubated for a short time. Wells were then washed followed by detection of bound phage using a horse radish conjugated anti-M13 antibody.

[2] = molecular target: T1, anti-CD28 Fab (SEQ ID NOs: 202, 203); experiment: phage ELISA on captured Fab;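 note: ELISA with clonal phage supernatants added to wells preincubated with CD28 antigen or with blocking buffer only, bound phage detected by HRP-conjugated anti-M13 antibody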
Protocol: as §1

Row | Binder | Anti-CD28 Fab signal in the presence of CD28 [1] | Anti-CD28 Fab (SEQ ID NOs: 202, 203) signal [2]
1 | YCDGHSLLYLSKCL (on phage, pIII fusion) [Phage-472] | 0.07 | 1.65
2 | YCEGHLAVYMEKCL (on phage, pIII fusion) [Phage-473] | 0.12 | 1.65
3 | YCEGHSLMYMWKCL (on phage, pIII fusion) [Phage-474] | 0.08 | 1.65
4 | YCEGHSLMYMAKCL (on phage, pIII fusion) [Phage-563] | 0.06 | 1.5
5 | YCAGHAAEYMTKCL (on phage, pIII fusion) [Phage-475] | 0.07 | 1.65
6 | YCDGHAQEYRLKCL (on phage, pIII fusion) [Phage-477] | 0.07 | 1.65
7 | YCDGHSAEYLLKCL (on phage, pIII fusion) [Phage-478] | 0.07 | 1.65
8 | YCDGHSAEYLSKCL (on phage, pIII fusion) [Phage-561] | 0.07 | 1.51
9 | YCDGHGPQYIQKCL (on phage, pIII fusion) [Phage-479] | 0.07 | 1.64
10 | YCDGHSPQYIQKCL (on phage, pIII fusion) [Phage-566] | 0.07 | 1.5
11 | YCEGHIAEYMQKCL (on phage, pIII fusion) [Phage-480] | 0.13 | 1.64
12 | YCEGHSAQYMHKCL (on phage, pIII fusion) [Phage-481] | 0.06 | 1.64
13 | YCEGHTAEHMQKCL (on phage, pIII fusion) [Phage-482] | 0.05 | 1.64
14 | YCAGHVAEYMAKCL (on phage, pIII fusion) [Phage-483] | 0.06 | 1.64
15 | YCDGHATEYMQKCL (on phage, pIII fusion) [Phage-484] | 0.1 | 1.64
16 | YCEGHMWEYMAKCL (on phage, pIII fusion) [Phage-485] | 0.13 | 1.64
17 | YCAGHSLEYMQKCL (on phage, pIII fusion) [Phage-487] | 0.07 | 1.63
18 | YCEGHDLIYMWKCL (on phage, pIII fusion) [Phage-488] | 0.06 | 1.63
19 | YCAGHAPEYMSKCL (on phage, pIII fusion) [Phage-489] | 0.05 | 1.63
20 | YCEGHSSEYMWKCL (on phage, pIII fusion) [Phage-490] | 0.09 | 1.63
21 | YCDGHLDVYRAKCL (on phage, pIII fusion) [Phage-491] | 0.09 | 1.63
22 | YCEGHLEQYMQKCL (on phage, pIII fusion) [Phage-492] | 0.06 | 1.63
23 | YCEGHSWVYMAKCL (on phage, pIII fusion) [Phage-493] | 0.07 | 1.63
24 | YCDGHSEAFMQKCL (on phage, pIII fusion) [Phage-495] | 0.07 | 1.63
25 | YCAGHLPEYMGKCL (on phage, pIII fusion) [Phage-496] | 0.07 | 1.63
26 | YCAGHLAIYMSKCL (on phage, pIII fusion) [Phage-497] | 0.08 | 1.63

Row | Binder | Anti-CD28 Fab signal in the presence of CD28 [1] | Anti-CD28 Fab (SEQ ID NOs: 202, 203) signal [2]
27 | YCDGHLSEYMSKCL (on phage, pIII fusion) [Phage-498] | 0.06 | 1.62
28 | YCEGHVTEYMQKCL (on phage, pIII fusion) [Phage-499] | 0.08 | 1.62
29 | YCDGHELKYMLKCL (on phage, pIII fusion) [Phage-502] | 0.08 | 1.62
30 | YCDGHLLEYKAKCL (on phage, pIII fusion) [Phage-503] | 0.07 | 1.62
31 | YCDGHSPEYMLKCL (on phage, pIII fusion) [Phage-505] | 0.07 | 1.61
32 | YCAGHSPQYMEKCL (on phage, pIII fusion) [Phage-506] | 0.06 | 1.61
33 | YCEGHADEYMWKCL (on phage, pIII fusion) [Phage-520] | 0.06 | 1.59
34 | YCEGHSVEYIGKCL (on phage, pIII fusion) [Phage-521] | 0.07 | 1.59
35 | YCEGHSWEHMEKCL (on phage, pIII fusion) [Phage-523] | 0.06 | 1.58
36 | YCAGHSSEYIPKCL (on phage, pIII fusion) [Phage-524] | 0.09 | 1.58
37 | YCDGHLPQYLQKCT (on phage, pIII fusion) [Phage-525] | 0.07 | 1.58
38 | YCDGHAKEYIQKCL (on phage, pIII fusion) [Phage-526] | 0.06 | 1.58
39 | YCEGHLPQYMVKCL (on phage, pIII fusion) [Phage-527] | 0.07 | 1.58
40 | YCQGHADEYMAKCL (on phage, pIII fusion) [Phage-528] | 0.08 | 1.58
41 | YCDGHAEEYLLKCL (on phage, pIII fusion) [Phage-529] | 0.05 | 1.57
42 | YCEGHLGIYMTKCL (on phage, pIII fusion) [Phage-530] | 0.08 | 1.57
43 | YCDGHSWQYMWKCI (on phage, pIII fusion) [Phage-531] | 0.09 | 1.57
44 | YCEGHSEEFMSKCL (on phage, pIII fusion) [Phage-532] | 0.08 | 1.57
45 | YCEGHAPVYMFKCL (on phage, pIII fusion) [Phage-547] | 0.08 | 1.54
46 | YCEGHLGQYMEKCL (on phage, pIII fusion) [Phage-548] | 0.08 | 1.54
47 | YCDGHNGVYWWKCI (on phage, pIII fusion) [Phage-549] | 0.07 | 1.53
48 | YCDGHAPEYLTKCL (on phage, pIII fusion; cell for position 6 is missing in the printed row) [Phage-550] | 0.06 | 1.53
49 | YCEGHSIQYMTKCL (on phage, pIII fusion) [Phage-551] | 0.13 | 1.53
50 | YCDGHLQIYMGKCL (on phage, pIII fusion) [Phage-552] | 0.06 | 1.53
51 | YCDGHSVEYLDKCL (on phage, pIII fusion) [Phage-553] | 0.08 | 1.53
52 | YCDGHAWQYMWKCL (on phage, pIII fusion) [Phage-554] | 0.07 | 1.53
